Here are results for 7 sequences from the supplement of paper PMC5998384.

The subject of data set [1] is HeLa Kyoto. Kind of data set: thermal stability score vs G1/S (z-score of summed log2 fold changes over temperatures); higher = more thermally stable than in G1/S.
Data set [2] deals with HeLa Kyoto. The data set is described as follows: solubility change mitosis vs G1/S (difference of NP-40 vs SDS log2 ratios) (log2 ratio difference); higher = more soluble in mitosis.
Data set [3] concerns HeLa Kyoto. The data set is described as follows: melting temperature (median over replicates), in situ; higher = more thermally stable.
Data set [4] concerns HeLa Kyoto. The data set is described as follows: solubility in G1/S (NP-40 vs SDS abundance) (log2 ratio); higher = more soluble. The settings on record: cell cycle stage: G1/S.
The mark [5] stands for this setting: cell cycle stage: early G1 (4.5 h after nocodazole release).
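Throughout, for melting temperature (median over replicates), in situ: HeLa Kyoto cells synchronized by double thymidine or nocodazole block, proteins quantified by TMT10plex mass spectrometry, three independent biological replicates.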
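Throughout, for solubility change mitosis vs G1/S (difference of NP-40 vs SDS log2 ratios): synchronized HeLa Kyoto cells (double thymidine block for G1/S, nocodazole release for mitosis), protein amounts in NP-40 versus SDS lysates quantified by mass spectrometry, three biological replicates.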
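Throughout, for solubility in G1/S (NP-40 vs SDS abundance): HeLa Kyoto cells arrested at G1/S by double thymidine block, proteins quantified by TMT10plex mass spectrometry in mild NP-40 versus SDS extracts, three biological replicates.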
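Throughout, for thermal stability score vs G1/S (z-score of summed log2 fold changes over temperatures): synchronized HeLa Kyoto cells, proteins quantified by TMT10plex mass spectrometry, three biological replicates, mitosis taken 0.5 h after nocodazole release, G1/S directly after double thymidine block.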

Take “MMSLSVRPQRRLLSARVNRSQSFAGVLGSHERGPSLSFRSFPVFSPPGPPRKPPALSRVSRMFSVAHPAAKVPQPERLDLVYTALKRGLTAYLEVHQQEQEKLQGQIRESKRNSRLGFLYDLDKQVKSIERFLRRLEFHASKIDELYEAYCVQRRLRDGAYNMVRAYTTGSPGSREARDSLAEATRGHREYTESMCLLESELEAQLGEFHLRMKGLAGFARLCVGDQYEICMKYGRQRWKLRGRIEGSGKQVWDSEETIFLPLLTEFLSIKVTELKGLANHVVVGSVSCETKDLFAALPQVVAVDINDLGTIKLSLEVTWSPFDKDDQPSAASSVNKASTVTKRFSTYSQSPPDTPSLREQAFYNMLRRQEELENGTAWSLSSESSDDSSSPQLSGTARHSPAPRPLVQQPEPLPIQVAFRRPETPSSGPLDEEGAVAPVLANGHAPYSRTLSHISEASVDAALAEASVEAVGPESLAWGPSPPTHPAPTHGEHPSPVPPALDPGHSATSSTLGTTGSVPTSTDPAPSAHLDSVHKSTDSGPSELPGPTHTTTGSTYSAITTTHSAPSPLTHTTTGSTHKPIISTLTTTGPTLNIIGPVQTTTSPTHTMPSPTHTTASPTHTSTSPTHTPTSPTHKTSMSPPTTTSPTPSGMGLVQTATSPTHPTTSPTHPTTSPILINVSPSTSLELATLSSPSKHSDPTLPGTDSLPCSPPVSNSYTQADPMAPRTPHPSPAHSSRKPLTSPAPDPSESTVQSLSPTPSPPTPAPQHSDLCLAMAVQTPVPTAAGGSGDRSLEEALGALMAALDDYRGQFPELQGLEQEVTRLESLLMQRQGLTRSRASSLSITVEHALESFSFLNEDEDEDNDVPGDRPPSSPEAGAEDSIDSPSARPLSTGCPALDAALVRHLYHCSRLLLKLGTFGPLRCQEAWALERLLREARVLEAVCEFSRRWEIPASSAQEVVQFSASRPGFLTFWDQCTERLSCFLCPVERVLLTFCNQYGARLSLRQPGLAEAVCVKFLEDALGQKLPRRPQPGPGEQLTVFQFWSFVETLDSPTMEAYVTETAEEVLLVRNLNSDDQAVVLKALRLAPEGRLRRDGLRALSSLLVHGNNKVMAAVSTQLRSLSLGPTFRERALLCFLDQLEDEDVQTRVAGCLALGCIKAPEGIEPLVYLCQTDTEAVREAARQSLQQCGEEGQSAHRRLEESLDALPRIFGPGSMASTAF [FAM65A]”: the thermal stability score in the data set with HeLa Kyoto [1] (setting [5]) was determined as 0.236; with HeLa Kyoto [1] (cell cycle stage: mitosis) it was 1.49. Further, in the data set on HeLa Kyoto [2], the “solubility change mitosis (log2)” value is -0.096. The values for the melting temperature with HeLa Kyoto [3] (cell cycle stage: G1/S) and in the data set with HeLa Kyoto [3] (cell cycle stage: mitosis) were 50.1 °C and 49.7 °C, respectively. Besides, the “solubility in G1/S (log2)” value with HeLa Kyoto [4] was 0.0594.

On to “MNAARTGYRVFSANSTAACTELAKRITERLGAELGKSVVYQETNGETRVEIKESVRGQDIFIIQTIPRDVNTAVMELLIMAYALKTACARNIIGVIPYFPYSKQSKMRKRGSIVCKLLASMLAKAGLTHIITMDLHQKEIQGFFSFPVDNLRASPFLLQYIQEEIPNYRNAVIVAKSPDAAKRAQSYAERLRLGLAVIHGEAQCTELDMDDGRHSPPMVKNATVHPGLELPLMMAKEKPPITVVGDVGGRIAIIVDDIIDDVESFVAAAEILKERGAYKIYVMATHGILSAEAPRLIEESSVDEVVVTNTVPHEVQKLQCPKIKTVDISLILSEAIRRIHNGESMAYLFRNITVDD [PRPSAP1]”, for which the thermal stability score is -0.299 in the data set with HeLa Kyoto [1] (setting [5]) and -2.79 with HeLa Kyoto [1] (cell cycle stage: mitosis). The “solubility change mitosis (log2)” value with HeLa Kyoto [2] is -0.211. Besides, the melting temperature with HeLa Kyoto [3] (cell cycle stage: G1/S) was determined as 55.6 °C; in the data set on HeLa Kyoto [3] (cell cycle stage: mitosis), 54.6 °C. In the data set on HeLa Kyoto [4], the “solubility in G1/S (log2)” value is 0.0529.

“MNFAEREGSKRYCIQTKHVAILCAVVVGVGLIVGLAVGLTRSCDSSGDGGPGTAPAPSHLPSSTASPSGPPAQDQDICPASEDESGQWKNFRLPDFVNPVHYDLHVKPLLEEDTYTGTVSISINLSAPTRYLWLHLRETRITRLPELKRPSGDQVQVRRCFEYKKQEYVVVEAEEELTPSSGDGLYLLTMEFAGWLNGSLVGFYRTTYTENGQVKSIVATDHEPTDARKSFPCFDEPNKKATYTISITHPKEYGALSNMPVAKEESVDDKWTRTTFEKSVPMSTYLVCFAVHQFDSVKRISNSGKPLTIYVQPEQKHTAEYAANITKSVFDYFEEYFAMNYSLPKLDKIAIPDFGTGAMENWGLITYRETNLLYDPKESASSNQQRVATVVAHELVHQWFGNIVTMDWWEDLWLNEGFASFFEFLGVNHAETDWQMRDQMLLEDVLPVQEDDSLMSSHPIIVTVTTPDEITSVFDGISYSKGSSILRMLEDWIKPENFQKGCQMYLEKYQFKNAKTSDFWAALEEASRLPVKEVMDTWTRQMGYPVLNVNGVKNITQKRFLLDPRANPSQPPSDLGYTWNIPVKWTEDNITSSVLFNRSEKEGITLNSSNPSGNAFLKINPDHIGFYRVNYEVATWDSIATALSLNHKTFSSADRASLIDDAFALARAQLLDYKVALNLTKYLKREENFLPWQRVISAVTYIISMFEDDKELYPMIEEYFQGQVKPIADSLGWNDAGDHVTKLLRSSVLGFACKMGDREALNNASSLFEQWLNGTVSLPVNLRLLVYRYGMQNSGNEISWNYTLEQYQKTSLAQEKEKLLYGLASVKNVTLLSRYLDLLKDTNLIKTQDVFTVIRYISYNSYGKNMAWNWIQLNWDYLVNRYTLNNRNLGRIVTIAEPFNTELQLWQMESFFAKYPQAGAGEKPREQVLETVKNNIEWLKQHRNTIREWFFNLLESG [ENPEP]”: the thermal stability score with HeLa Kyoto [1] (setting [5]) is -1.64; with HeLa Kyoto [1] (cell cycle stage: mitosis), -0.842. The “solubility change mitosis (log2)” value in the data set with HeLa Kyoto [2] came out at 0.193. In addition, the melting temperature came to 57.4 °C in the data set with HeLa Kyoto [3] (cell cycle stage: G1/S) and 55.9 °C with HeLa Kyoto [3] (cell cycle stage: mitosis). Also, in the data set with HeLa Kyoto [4], the “solubility in G1/S (log2)” value was -0.159.

Turning to “MNGDSRAAVVTSPPPTTAPHKERYFDRVDENNPEYLRERNMAPDLRQDFNMMEQKKRVSMILQSPAFCEELESMIQEQFKKGKNPTGLLALQQIADFMTTNVPNVYPAAPQGGMAALNMSLGMVTPVNDLRGSDSIAYDKGEKLLRCKLAAFYRLADLFGWSQLIYNHITTRVNSEQEHFLIVPFGLLYSEVTASSLVKINLQGDIVDRGSTNLGVNQAGFTLHSAIYAARPDVKCVVHIHTPAGAAVSAMKCGLLPISPEALSLGEVAYHDYHGILVDEEEKVLIQKNLGPKSKVLILRNHGLVSVGESVEEAFYYIHNLVVACEIQVRTLASAGGPDNLVLLNPEKYKAKSRSPGSPVGEGTGSPPKWQIGEQEFEALMRMLDNLGYRTGYPYRYPALREKSKKYSDVEVPASVTGYSFASDGDSGTCSPLRHSFQKQQREKTRWLNSGRGDEASEEGQNGSSPKSKTKWTKEDGHRTSTSAVPNLFVPLNTNPKEVQEMRNKIREQNLQDIKTAGPQSQVLCGVVMDRSLVQGELVTASKAIIEKEYQPHVIVSTTGPNPFTTLTDRELEEYRREVERKQKGSEENLDEAREQKEKSPPDQPAVPHPPPSTPIKLEEDLVPEPTTGDDSDAATFKPTLPDLSPDEPSEALGFPMLEKEEEAHRPPSPTEAPTEASPEPAPDPAPVAEEAAPSAVEEGAAADPGSDGSPGKSPSKKKKKFRTPSFLKKSKKKSDS [ADD1]”, the thermal stability score with HeLa Kyoto [1] (setting [5]) was -4.45; in the data set with HeLa Kyoto [1] (cell cycle stage: mitosis), -3.29. In the data set with HeLa Kyoto [2], the “solubility change mitosis (log2)” value came out at 0.0666. The figures for the melting temperature with HeLa Kyoto [3] (cell cycle stage: G1/S) and with HeLa Kyoto [3] (cell cycle stage: mitosis) were 55.2 °C and 55.1 °C, respectively. Moreover, in the data set with HeLa Kyoto [4], the “solubility in G1/S (log2)” value is 0.119.

In the case of “MNGKRPAEPGPARVGKKGKKEVMAEFSDAVTEETLKKQVAEAWSRRTPFSHEVIVMDMDPFLHCVIPNFIQSQDFLEGLQKELMNLDFHEKYNDLYKFQQSDDLKKRREPHISTLRKILFEDFRSWLSDISKIDLESTIDMSCAKYEFTDALLCHDDELEGRRIAFILYLVPPWDRSMGGTLDLYSIDEHFQPKQIVKSLIPSWNKLVFFEVSPVSFHQVSEVLSEEKSRLSISGWFHGPSLTRPPNYFEPPIPRSPHIPQDHEILYDWINPTYLDMDYQVQIQEEFEESSEILLKEFLKPEKFTKVCEALEHGHVEWSSRGPPNKRFYEKAEESKLPEILKECMKLFRSEALFLLLSNFTGLKLHFLAPSEEDEMNDKKEAETTDITEEGTSHSPPEPENNQMAISNNSQQSNEQTDPEPEENETKKESSVPMCQGELRHWKTGHYTLIHDHSKAEFALDLILYCGCEGWEPEYGGFTSYIAKGEDEELLTVNPESNSLALVYRDRETLKFVKHINHRSLEQKKTFPNRTGFWDFSFIYYE [OGFOD1]”, the thermal stability score with HeLa Kyoto [1] (setting [5]) worked out at 1.93; in the data set on HeLa Kyoto [1] (cell cycle stage: mitosis) it was 0.186. Besides, the “solubility change mitosis (log2)” value in the data set on HeLa Kyoto [2] was -0.151. The figures for the melting temperature with HeLa Kyoto [3] (cell cycle stage: G1/S) and in the data set with HeLa Kyoto [3] (cell cycle stage: mitosis) were 53.1 °C and 53.6 °C, respectively. Also, the “solubility in G1/S (log2)” value in the data set on HeLa Kyoto [4] is -0.0197.

In the case of “MNGRADFREPNAEVPRPIPHIGPDYIPTEEERRVFAECNDESFWFRSVPLAATSMLITQGLISKGILSSHPKYGSIPKLILACIMGYFAGKLSYVKTCQEKFKKLENSPLGEALRSGQARRSSPPGHYYQKSKYDSSVSGQSSFVTSPAADNIEMLPHYEPIPFSSSMNESAPTGITDHIVQGPDPNLEESPKRKNITYEELRNKNRESYEVSLTQKTDPSVRPMHERVPKKEVKVNKYGDTWDE [OCIAD1]”, the thermal stability score in the data set with HeLa Kyoto [1] (setting [5]) was -1.09; in the data set on HeLa Kyoto [1] (cell cycle stage: mitosis), -4.47. The “solubility change mitosis (log2)” value with HeLa Kyoto [2] worked out at 0.225. Further, the melting temperature with HeLa Kyoto [3] (cell cycle stage: G1/S) was 55.9 °C; with HeLa Kyoto [3] (cell cycle stage: mitosis), 53.1 °C. In addition, the “solubility in G1/S (log2)” value with HeLa Kyoto [4] was 0.219.

As to “MNHSERFVFIAEWYDPNASLLRRYELLFYPGDGSVEMHDVKNHRTFLKRTKYDNLHLEDLFIGNKVNVFSRQLVLIDYGDQYTARQLGSRKEKTLALIKPDAISKAGEIIEIINKAGFTITKLKMMMLSRKEALDFHVDHQSRPFFNELIQFITTGPIIAMEILRDDAICEWKRLLGPANSGVARTDASESIRALFGTDGIRNAAHGPDSFASAAREMELFFPSSGGCGPANTAKFTNCTCCIVKPHAVSEGLLGKILMAIRDAGFEISAMQMFNMDRVNVEEFYEVYKGVVTEYHDMVTEMYSGPCVAMEIQQNNATKTFREFCGPADPEIARHLRPGTLRAIFGKTKIQNAVHCTDLPEDGLLEVQYFFKILDN [NME7]”, the thermal stability score with HeLa Kyoto [1] (setting [5]) was 0.587; in the data set on HeLa Kyoto [1] (cell cycle stage: mitosis) it was 0.668. In addition, in the data set with HeLa Kyoto [2], the “solubility change mitosis (log2)” value turned out to be 0.0736. Further, the values for the melting temperature in the data set with HeLa Kyoto [3] (cell cycle stage: G1/S) and with HeLa Kyoto [3] (cell cycle stage: mitosis) were 48.9 °C and 48.8 °C, respectively. Also, the “solubility in G1/S (log2)” value in the data set on HeLa Kyoto [4] was -0.32.
